The source of these data is patent US20070077617.

A value given as a limit tells only on which side of the number the result lay.

First the molecules themselves.
B1: OmpT protease variant OmpT D97V (protein)
chain: STETLSFTPDNINADISLGTLSGKTKERVYLAEEGGRKVSQLDWKFNNAAIIKGAINWDLMPQISIGAAGWTTLGSRGGNMVDQDWMDSSNPGTWTVESRHPDTQLNYANEFDLNIKGWLLNEPNYRLGLMAGYQESRYSFTARGGSYIYSSEEGFRDDIGSFPNGERAIGYKQRFKMPYIGLTGSYRYEDFELGGTFKYSGWVESSDNDEHYDPGKRITYRSKVKDQNYYSVAVNAGYYVTPNAKVYVEGAWNRVTNKKGNTSLYDHNNNTSDYSKNGAGIENYNFITTAGLKYTF
B2: OmpT protease variant OmpT D97N (protein)
chain: STETLSFTPDNINADISLGTLSGKTKERVYLAEEGGRKVSQLDWKFNNAAIIKGAINWDLMPQISIGAAGWTTLGSRGGNMVDQDWMDSSNPGTWTNESRHPDTQLNYANEFDLNIKGWLLNEPNYRLGLMAGYQESRYSFTARGGSYIYSSEEGFRDDIGSFPNGERAIGYKQRFKMPYIGLTGSYRYEDFELGGTFKYSGWVESSDNDEHYDPGKRITYRSKVKDQNYYSVAVNAGYYVTPNAKVYVEGAWNRVTNKKGNTSLYDHNNNTSDYSKNGAGIENYNFITTAGLKYTF
B3: OmpT protease variant OmpT D97M (protein)
chain: STETLSFTPDNINADISLGTLSGKTKERVYLAEEGGRKVSQLDWKFNNAAIIKGAINWDLMPQISIGAAGWTTLGSRGGNMVDQDWMDSSNPGTWTMESRHPDTQLNYANEFDLNIKGWLLNEPNYRLGLMAGYQESRYSFTARGGSYIYSSEEGFRDDIGSFPNGERAIGYKQRFKMPYIGLTGSYRYEDFELGGTFKYSGWVESSDNDEHYDPGKRITYRSKVKDQNYYSVAVNAGYYVTPNAKVYVEGAWNRVTNKKGNTSLYDHNNNTSDYSKNGAGIENYNFITTAGLKYTF
B4: OmpT protease variant OmpT D97H (protein)
chain: STETLSFTPDNINADISLGTLSGKTKERVYLAEEGGRKVSQLDWKFNNAAIIKGAINWDLMPQISIGAAGWTTLGSRGGNMVDQDWMDSSNPGTWTHESRHPDTQLNYANEFDLNIKGWLLNEPNYRLGLMAGYQESRYSFTARGGSYIYSSEEGFRDDIGSFPNGERAIGYKQRFKMPYIGLTGSYRYEDFELGGTFKYSGWVESSDNDEHYDPGKRITYRSKVKDQNYYSVAVNAGYYVTPNAKVYVEGAWNRVTNKKGNTSLYDHNNNTSDYSKNGAGIENYNFITTAGLKYTF
B5: OmpT protease variant OmpT D97L (protein)
chain: STETLSFTPDNINADISLGTLSGKTKERVYLAEEGGRKVSQLDWKFNNAAIIKGAINWDLMPQISIGAAGWTTLGSRGGNMVDQDWMDSSNPGTWTLESRHPDTQLNYANEFDLNIKGWLLNEPNYRLGLMAGYQESRYSFTARGGSYIYSSEEGFRDDIGSFPNGERAIGYKQRFKMPYIGLTGSYRYEDFELGGTFKYSGWVESSDNDEHYDPGKRITYRSKVKDQNYYSVAVNAGYYVTPNAKVYVEGAWNRVTNKKGNTSLYDHNNNTSDYSKNGAGIENYNFITTAGLKYTF
B6: OmpT protease variant OmpT D97A (protein)
chain: STETLSFTPDNINADISLGTLSGKTKERVYLAEEGGRKVSQLDWKFNNAAIIKGAINWDLMPQISIGAAGWTTLGSRGGNMVDQDWMDSSNPGTWTAESRHPDTQLNYANEFDLNIKGWLLNEPNYRLGLMAGYQESRYSFTARGGSYIYSSEEGFRDDIGSFPNGERAIGYKQRFKMPYIGLTGSYRYEDFELGGTFKYSGWVESSDNDEHYDPGKRITYRSKVKDQNYYSVAVNAGYYVTPNAKVYVEGAWNRVTNKKGNTSLYDHNNNTSDYSKNGAGIENYNFITTAGLKYTF
B7: OmpT protease variant OmpT D97P (protein)
chain: STETLSFTPDNINADISLGTLSGKTKERVYLAEEGGRKVSQLDWKFNNAAIIKGAINWDLMPQISIGAAGWTTLGSRGGNMVDQDWMDSSNPGTWTPESRHPDTQLNYANEFDLNIKGWLLNEPNYRLGLMAGYQESRYSFTARGGSYIYSSEEGFRDDIGSFPNGERAIGYKQRFKMPYIGLTGSYRYEDFELGGTFKYSGWVESSDNDEHYDPGKRITYRSKVKDQNYYSVAVNAGYYVTPNAKVYVEGAWNRVTNKKGNTSLYDHNNNTSDYSKNGAGIENYNFITTAGLKYTF
B8: OmpT protease variant OmpT D97G (protein)
chain: STETLSFTPDNINADISLGTLSGKTKERVYLAEEGGRKVSQLDWKFNNAAIIKGAINWDLMPQISIGAAGWTTLGSRGGNMVDQDWMDSSNPGTWTGESRHPDTQLNYANEFDLNIKGWLLNEPNYRLGLMAGYQESRYSFTARGGSYIYSSEEGFRDDIGSFPNGERAIGYKQRFKMPYIGLTGSYRYEDFELGGTFKYSGWVESSDNDEHYDPGKRITYRSKVKDQNYYSVAVNAGYYVTPNAKVYVEGAWNRVTNKKGNTSLYDHNNNTSDYSKNGAGIENYNFITTAGLKYTF
B9: OmpT protease variant OmpT D97S (protein)
chain: STETLSFTPDNINADISLGTLSGKTKERVYLAEEGGRKVSQLDWKFNNAAIIKGAINWDLMPQISIGAAGWTTLGSRGGNMVDQDWMDSSNPGTWTSESRHPDTQLNYANEFDLNIKGWLLNEPNYRLGLMAGYQESRYSFTARGGSYIYSSEEGFRDDIGSFPNGERAIGYKQRFKMPYIGLTGSYRYEDFELGGTFKYSGWVESSDNDEHYDPGKRITYRSKVKDQNYYSVAVNAGYYVTPNAKVYVEGAWNRVTNKKGNTSLYDHNNNTSDYSKNGAGIENYNFITTAGLKYTF
B10: OmpT protease variant OmpT D97I (protein)
chain: STETLSFTPDNINADISLGTLSGKTKERVYLAEEGGRKVSQLDWKFNNAAIIKGAINWDLMPQISIGAAGWTTLGSRGGNMVDQDWMDSSNPGTWTIESRHPDTQLNYANEFDLNIKGWLLNEPNYRLGLMAGYQESRYSFTARGGSYIYSSEEGFRDDIGSFPNGERAIGYKQRFKMPYIGLTGSYRYEDFELGGTFKYSGWVESSDNDEHYDPGKRITYRSKVKDQNYYSVAVNAGYYVTPNAKVYVEGAWNRVTNKKGNTSLYDHNNNTSDYSKNGAGIENYNFITTAGLKYTF
B11: OmpT protease variant OmpT D97F (protein)
chain: STETLSFTPDNINADISLGTLSGKTKERVYLAEEGGRKVSQLDWKFNNAAIIKGAINWDLMPQISIGAAGWTTLGSRGGNMVDQDWMDSSNPGTWTFESRHPDTQLNYANEFDLNIKGWLLNEPNYRLGLMAGYQESRYSFTARGGSYIYSSEEGFRDDIGSFPNGERAIGYKQRFKMPYIGLTGSYRYEDFELGGTFKYSGWVESSDNDEHYDPGKRITYRSKVKDQNYYSVAVNAGYYVTPNAKVYVEGAWNRVTNKKGNTSLYDHNNNTSDYSKNGAGIENYNFITTAGLKYTF
B12: OmpT protease variant OmpT D97Q (protein)
chain: STETLSFTPDNINADISLGTLSGKTKERVYLAEEGGRKVSQLDWKFNNAAIIKGAINWDLMPQISIGAAGWTTLGSRGGNMVDQDWMDSSNPGTWTQESRHPDTQLNYANEFDLNIKGWLLNEPNYRLGLMAGYQESRYSFTARGGSYIYSSEEGFRDDIGSFPNGERAIGYKQRFKMPYIGLTGSYRYEDFELGGTFKYSGWVESSDNDEHYDPGKRITYRSKVKDQNYYSVAVNAGYYVTPNAKVYVEGAWNRVTNKKGNTSLYDHNNNTSDYSKNGAGIENYNFITTAGLKYTF
B13: OmpT protease variant OmpT D97E (protein)
chain: STETLSFTPDNINADISLGTLSGKTKERVYLAEEGGRKVSQLDWKFNNAAIIKGAINWDLMPQISIGAAGWTTLGSRGGNMVDQDWMDSSNPGTWTEESRHPDTQLNYANEFDLNIKGWLLNEPNYRLGLMAGYQESRYSFTARGGSYIYSSEEGFRDDIGSFPNGERAIGYKQRFKMPYIGLTGSYRYEDFELGGTFKYSGWVESSDNDEHYDPGKRITYRSKVKDQNYYSVAVNAGYYVTPNAKVYVEGAWNRVTNKKGNTSLYDHNNNTSDYSKNGAGIENYNFITTAGLKYTF
B14: OmpT protease variant OmpT D97W (protein)
chain: STETLSFTPDNINADISLGTLSGKTKERVYLAEEGGRKVSQLDWKFNNAAIIKGAINWDLMPQISIGAAGWTTLGSRGGNMVDQDWMDSSNPGTWTWESRHPDTQLNYANEFDLNIKGWLLNEPNYRLGLMAGYQESRYSFTARGGSYIYSSEEGFRDDIGSFPNGERAIGYKQRFKMPYIGLTGSYRYEDFELGGTFKYSGWVESSDNDEHYDPGKRITYRSKVKDQNYYSVAVNAGYYVTPNAKVYVEGAWNRVTNKKGNTSLYDHNNNTSDYSKNGAGIENYNFITTAGLKYTF
B15: OmpT protease variant OmpT D97C (protein)
chain: STETLSFTPDNINADISLGTLSGKTKERVYLAEEGGRKVSQLDWKFNNAAIIKGAINWDLMPQISIGAAGWTTLGSRGGNMVDQDWMDSSNPGTWTCESRHPDTQLNYANEFDLNIKGWLLNEPNYRLGLMAGYQESRYSFTARGGSYIYSSEEGFRDDIGSFPNGERAIGYKQRFKMPYIGLTGSYRYEDFELGGTFKYSGWVESSDNDEHYDPGKRITYRSKVKDQNYYSVAVNAGYYVTPNAKVYVEGAWNRVTNKKGNTSLYDHNNNTSDYSKNGAGIENYNFITTAGLKYTF
B16: OmpT protease variant OmpT D97T (protein)
chain: STETLSFTPDNINADISLGTLSGKTKERVYLAEEGGRKVSQLDWKFNNAAIIKGAINWDLMPQISIGAAGWTTLGSRGGNMVDQDWMDSSNPGTWTTESRHPDTQLNYANEFDLNIKGWLLNEPNYRLGLMAGYQESRYSFTARGGSYIYSSEEGFRDDIGSFPNGERAIGYKQRFKMPYIGLTGSYRYEDFELGGTFKYSGWVESSDNDEHYDPGKRITYRSKVKDQNYYSVAVNAGYYVTPNAKVYVEGAWNRVTNKKGNTSLYDHNNNTSDYSKNGAGIENYNFITTAGLKYTF
B17: OmpT protease variant OmpT D97Y (protein)
chain: STETLSFTPDNINADISLGTLSGKTKERVYLAEEGGRKVSQLDWKFNNAAIIKGAINWDLMPQISIGAAGWTTLGSRGGNMVDQDWMDSSNPGTWTYESRHPDTQLNYANEFDLNIKGWLLNEPNYRLGLMAGYQESRYSFTARGGSYIYSSEEGFRDDIGSFPNGERAIGYKQRFKMPYIGLTGSYRYEDFELGGTFKYSGWVESSDNDEHYDPGKRITYRSKVKDQNYYSVAVNAGYYVTPNAKVYVEGAWNRVTNKKGNTSLYDHNNNTSDYSKNGAGIENYNFITTAGLKYTF

This data set deals with fusion protein PRV.
fusion protein PRV, sequence (chain, as listed by the source): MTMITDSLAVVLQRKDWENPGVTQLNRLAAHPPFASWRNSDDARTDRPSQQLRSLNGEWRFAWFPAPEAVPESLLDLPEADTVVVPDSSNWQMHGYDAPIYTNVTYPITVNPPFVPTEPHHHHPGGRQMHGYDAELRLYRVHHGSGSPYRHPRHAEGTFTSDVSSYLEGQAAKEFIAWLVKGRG
With B1, the relative cleavage efficiency result is given as “less than 3.0%”. The figure for B2 is below 3%. To B3 belongs 3%.

B4 yielded a relative cleavage efficiency of 7.8%.

In the case of B5, the relative cleavage efficiency is below 3%. As to B6, the relative cleavage efficiency was below 3%. For the protein B7, the relative cleavage efficiency result is listed as “less than 3.0%”. The entry for B8 is “less than 3.0%”. For the protein B9, the relative cleavage efficiency is below 3%.

Turning to B10, the relative cleavage efficiency result is on record as “less than 3.0%”. To B11 belongs below 3%. The figure for B12 is below 3%. B13 registered a relative cleavage efficiency of 5%.

B14: the relative cleavage efficiency entry was “less than 3.0%”. The figure for B15 is 3.2%; for B16 it is below 3%; for B17 it is “less than 3.0%”.
